Test results taken from publication PMC6262836.
“And” between values parts separate entries of the source, which are not always exact repeats. Equal values may be shown once. Read-outs that look alike come from different tables or passages of the source.

Assays:
Test in all cases: SPR
[1] = target: Recombinant human VEGFR-2 Fc chimera (human) (UniProt P35968)
[2] = target: Recombinant human VEGFR-1 Fc chimera (human) (UniProt P17948)
[3] = target: Recombinant human VEGFR-2 Fc chimera (human) (UniProt P35968); remark: listed apart in the source
[4] = target: Recombinant human VEGFR-2 Fc chimera (human) (UniProt P35968); remark: listed apart in the source
[5] = target: Recombinant human VEGFR-1 Fc chimera (human) (UniProt P17948); remark: listed apart in the source
[6] = target: Recombinant mouse neuropilin-1 (NRP-1 monomer) (mouse) (UniProt P97333)
UniProt P97333, sequence (P97333 22-856): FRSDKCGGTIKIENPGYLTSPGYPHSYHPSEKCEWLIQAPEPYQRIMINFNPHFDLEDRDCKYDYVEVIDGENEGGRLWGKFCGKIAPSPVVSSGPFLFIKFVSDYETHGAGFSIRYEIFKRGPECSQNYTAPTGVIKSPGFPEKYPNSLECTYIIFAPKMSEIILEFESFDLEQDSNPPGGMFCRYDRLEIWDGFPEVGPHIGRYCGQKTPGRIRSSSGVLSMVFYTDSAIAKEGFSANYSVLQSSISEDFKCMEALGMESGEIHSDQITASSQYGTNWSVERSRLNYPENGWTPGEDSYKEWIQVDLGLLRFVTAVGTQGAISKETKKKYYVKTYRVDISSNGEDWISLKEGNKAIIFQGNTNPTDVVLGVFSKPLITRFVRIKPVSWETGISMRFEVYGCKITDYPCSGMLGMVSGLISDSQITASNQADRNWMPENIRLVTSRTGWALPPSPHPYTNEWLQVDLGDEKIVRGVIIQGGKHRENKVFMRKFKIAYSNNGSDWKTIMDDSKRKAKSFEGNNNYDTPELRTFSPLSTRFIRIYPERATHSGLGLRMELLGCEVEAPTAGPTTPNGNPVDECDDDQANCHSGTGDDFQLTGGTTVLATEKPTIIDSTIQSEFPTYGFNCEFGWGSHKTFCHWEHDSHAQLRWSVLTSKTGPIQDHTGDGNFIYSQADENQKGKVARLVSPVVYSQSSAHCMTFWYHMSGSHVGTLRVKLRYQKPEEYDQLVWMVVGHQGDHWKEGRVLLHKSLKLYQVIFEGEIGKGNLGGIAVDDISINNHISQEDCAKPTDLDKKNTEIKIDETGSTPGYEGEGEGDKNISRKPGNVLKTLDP

[7] = target: Recombinant human VEGFR-2 Fc chimera (human) (UniProt P35968); remark: listed apart in the source
[8] = target: Recombinant human VEGFR-1 Fc chimera (human) (UniProt P17948); remark: listed apart in the source
[9] = target: Recombinant mouse neuropilin-1 (NRP-1 monomer) (mouse) (UniProt P97333); remark: listed apart in the source

UniProt P17948, sequence (P17948 27-758, change not shown): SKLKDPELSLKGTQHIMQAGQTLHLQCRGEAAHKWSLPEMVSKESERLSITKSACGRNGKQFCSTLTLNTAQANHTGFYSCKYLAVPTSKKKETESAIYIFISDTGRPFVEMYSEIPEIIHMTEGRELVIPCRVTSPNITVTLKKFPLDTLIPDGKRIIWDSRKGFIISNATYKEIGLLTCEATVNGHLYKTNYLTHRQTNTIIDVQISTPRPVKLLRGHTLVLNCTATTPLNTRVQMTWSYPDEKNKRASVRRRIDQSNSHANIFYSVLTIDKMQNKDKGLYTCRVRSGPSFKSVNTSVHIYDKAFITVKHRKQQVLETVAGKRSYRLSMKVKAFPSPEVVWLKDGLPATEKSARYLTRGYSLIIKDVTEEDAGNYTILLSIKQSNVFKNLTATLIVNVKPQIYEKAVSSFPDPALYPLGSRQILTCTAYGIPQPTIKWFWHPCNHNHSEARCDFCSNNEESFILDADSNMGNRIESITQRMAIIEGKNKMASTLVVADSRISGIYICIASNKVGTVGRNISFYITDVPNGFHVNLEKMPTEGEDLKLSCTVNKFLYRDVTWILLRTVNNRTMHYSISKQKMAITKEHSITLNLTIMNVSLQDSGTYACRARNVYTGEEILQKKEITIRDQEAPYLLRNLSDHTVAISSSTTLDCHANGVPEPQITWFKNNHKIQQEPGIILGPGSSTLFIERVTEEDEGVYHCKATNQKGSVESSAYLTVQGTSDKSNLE
UniProt P35968, sequence (P35968 20-764, change not shown): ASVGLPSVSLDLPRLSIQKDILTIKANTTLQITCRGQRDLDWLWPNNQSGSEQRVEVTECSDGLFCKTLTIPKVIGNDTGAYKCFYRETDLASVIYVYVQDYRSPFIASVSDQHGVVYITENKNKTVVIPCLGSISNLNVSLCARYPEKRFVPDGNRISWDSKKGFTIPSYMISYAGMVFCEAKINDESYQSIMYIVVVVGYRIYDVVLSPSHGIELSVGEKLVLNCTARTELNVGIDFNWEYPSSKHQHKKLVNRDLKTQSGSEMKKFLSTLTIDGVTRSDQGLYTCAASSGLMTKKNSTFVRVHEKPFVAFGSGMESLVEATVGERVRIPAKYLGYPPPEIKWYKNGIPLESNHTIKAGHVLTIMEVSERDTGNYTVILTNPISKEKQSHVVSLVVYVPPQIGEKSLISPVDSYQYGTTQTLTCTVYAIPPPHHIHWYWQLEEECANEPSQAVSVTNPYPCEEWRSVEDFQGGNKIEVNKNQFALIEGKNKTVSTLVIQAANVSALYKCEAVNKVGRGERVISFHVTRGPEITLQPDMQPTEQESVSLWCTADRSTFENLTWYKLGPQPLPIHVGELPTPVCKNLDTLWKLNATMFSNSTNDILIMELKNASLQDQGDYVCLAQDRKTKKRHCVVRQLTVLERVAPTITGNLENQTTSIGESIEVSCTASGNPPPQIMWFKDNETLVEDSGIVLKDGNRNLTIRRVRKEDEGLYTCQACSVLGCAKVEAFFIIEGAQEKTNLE

Kd [1] | kon [1] | Kd [2] | koff [2] | kon [2] | kon [3] | Kd [4] | Kd [5] | Kd [6] | Kd [7] | Kd [8] | Kd [9] | koff [9] | kon [9] | koff [1] | Substance
5.5 nM | 5.47e+06 M⁻¹ s⁻¹ | 6.2 nM | 0.0088 s⁻¹ | 1.43e+06 M⁻¹ s⁻¹ | 547000 M⁻¹ s⁻¹ | 17 nM | 7.2 nM |  |  |  |  |  |  |  | Recombinant human VEGF121 (ligand)
8.6 nM | 1.76e+06 M⁻¹ s⁻¹ | 0.196 nM | 0.000569 s⁻¹ and 0.000592 s⁻¹ | 2.91e+06 M⁻¹ s⁻¹ |  |  |  | 28 nM | 18 nM | 3.7 nM | 25 nM | 0.065 s⁻¹ | 2.64e+06 M⁻¹ s⁻¹ | 0.0151 s⁻¹ | Recombinant human VEGF165 (ligand)
